Results as given in the supplement of paper PMC12042874.
± gives the uncertainty stated by the source.

Assay: amyloid nucleation score (Sup35N fusion, yeast selection) (log enrichment); library NNK2; higher = more nucleation; inactive = no reads after selection
Outline: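 For the nucleation score, DiMSum gave the log enrichment of output over input reads, centred on the mode score of non-aggregating sequences. Psi-negative yeast expressing Sup35N fused to peptides of 20 random codons were induced with 100 μM copper sulfate for 24 hours and grown 7 days at 30°C on medium lacking adenine and uracil. Input and output plasmid inserts were Illumina-sequenced, and sequences with under 100 input reads were excluded.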
For AETLPFWGNG, the amyloid nucleation score was 0.695 ± 0.57. AFLNFTDRKSQWKVMVIEFL showed an amyloid nucleation score of 3.3 ± 0.096. For AFRVNWYDQNRYVEVKG, the amyloid nucleation score was 0.292 ± 0.4. AFSVFSWSFQWQTSCWQICE showed an amyloid nucleation score of 5.022 ± 0.038. For AFVNVVGLVYSF, the amyloid nucleation score was -1.42 ± 0.45. AFYMIRH gave an amyloid nucleation score of 3.66 ± 0.076. With AGEQEVDGPVIQRWSGFTTR the amyloid nucleation score was 2.2 ± 0.21. In the case of AGGWVFFQGESSSLSNTSGS, the amyloid nucleation score is reported as “inactive”. In the case of AGLRGIHEIGLLDAKWDDNH, the amyloid nucleation score is reported as “inactive”. AGPWGVSTFYAVHLLASLYP showed an amyloid nucleation score of -0.446 ± 0.79. AGRNIGIHIVGLDRQRSSAN gave an amyloid nucleation score of 0.278 ± 0.31. Substance AGVSLFVHGNL has an amyloid nucleation score of 4.45 ± 0.095. With AHAPGPNEA the amyloid nucleation score was 0.276 ± 0.8. With AHHLSFGVNDCSTCERSVQ the amyloid nucleation score was 0.77 ± 0.28. Substance AHLRITFSMSMNMQLFMVLR has an amyloid nucleation score of 0.587 ± 0.48. AHQHWQRGFEEHPEIRFIHW gave an amyloid nucleation score of 4.29 ± 0.11. In the case of AIASLTRTFSA, the amyloid nucleation score is reported as 0.167 ± 0.42. For AIIPRMLKYRERGKPTKRDT, the amyloid nucleation score was 0.291 ± 0.24. With AILGLYVYMGSWHKGVSGVI the amyloid nucleation score was “inactive”. In the case of AIQLCLWSKRSQGRWFTLPV, the amyloid nucleation score is reported as 0.82 ± 0.47. In the case of AISRRALKTHHFKWGCNVG, the amyloid nucleation score is reported as 0.266 ± 0.19. Work on AIWSVLYGGRYTMPHSIFGA yielded an amyloid nucleation score of 0.448 ± 0.38. AIWVYRPLVIQGTFGIRPA gave an amyloid nucleation score of 6.15 ± 0.08. In the case of AKGMGPKNDTTYYFPVSVFE, the amyloid nucleation score is reported as -0.213 ± 0.48. In the case of ALCKMQLITSSYQGPATEDL, the amyloid nucleation score is reported as -0.168 ± 0.76. In the case of ALECHIRLKWRVSVGPGVLV, the amyloid nucleation score is reported as 1.17 ± 0.28. With ALFIEISPLTINLFTNAKSL the amyloid nucleation score was -1.06 ± 0.76. ALGSRINYQKGLMQNRTGKG showed an amyloid nucleation score of -0.649 ± 0.76. In the case of ALIGLWVGKPFPGGMLVLFM, the amyloid nucleation score is reported as 0.24 ± 0.3. In the case of ALILVAMSVFLSAGLRVMIK, the amyloid nucleation score is reported as “inactive”. ALKFHGSNDSRFLI showed an amyloid nucleation score of -0.756 ± 1. In the case of ALNSPFMLQFLDWL, the amyloid nucleation score is reported as 0.11 ± 0.76. ALPAFELGEFNNADHSHDDN showed an amyloid nucleation score of -0.464 ± 1.1. Work on ALSSFIGVRNLQAQGHFTQI yielded an amyloid nucleation score of 0.638 ± 0.36. ALYLL showed an amyloid nucleation score of 0.154 ± 0.23. For AMDASR, the amyloid nucleation score was 1.7 ± 0.12. AMERDYFLTVTCDRVKYLGE showed an amyloid nucleation score of 1.01 ± 0.4. AMFTSSMIRTLGCCSGSQTA showed an amyloid nucleation score of 4.14 ± 0.13. For AMLLNILVPYVYSKTGRGPV, the amyloid nucleation score was 1.88 ± 0.33. AMNVDIN showed an amyloid nucleation score of -0.641 ± 0.24. For AMRWFGKYSRFWNGYIRNWI, the amyloid nucleation score was -0.193 ± 0.76. AMYFRVVLA showed an amyloid nucleation score of 1.25 ± 0.31. ANAAV gave an amyloid nucleation score of 1.12 ± 0.61. With ANCATSVLCCSGCV the amyloid nucleation score was 0.878 ± 0.14. ANGVSILDFRKHATFWWWET gave an amyloid nucleation score of -0.103 ± 0.29. ANLCSAT showed an amyloid nucleation score of -0.799 ± 0.44. For ANLRLYICWGFDKSVINIKS, the amyloid nucleation score was 6.908 ± 0.038. Work on ANQSVYLAEAVYQAGIEGRD yielded an amyloid nucleation score of 0.358 ± 0.24. With ANRNRYNLHWDMG the amyloid nucleation score was 0.946 ± 0.6. With ANSMLVF the amyloid nucleation score was -0.573 ± 0.4. Work on ANSVCDNVVTVSLLRLYMVL yielded an amyloid nucleation score of 5.39 ± 0.071. In the case of ANSYYIVYLGPHHAYFFILK, the amyloid nucleation score is reported as 3.75 ± 0.12. Substance ANTCVPPLLRMFPLRGRTHI has an amyloid nucleation score of -0.184 ± 1.1. For ANTWVKHTLCVGRLQGDWGI, the amyloid nucleation score was -0.029 ± 0.42. Work on APNMKSNLYFPEVRLNEGSR yielded an amyloid nucleation score of 0.714 ± 0.53. For APSLIYFNVST, the amyloid nucleation score was 3.75 ± 0.13. In the case of AQFVKWAVNLLGSRYSWYEQ, the amyloid nucleation score is reported as “inactive”. Work on AQGSRDSNRRVEASACY yielded an amyloid nucleation score of -0.09 ± 0.63. Work on ARDRNSFGLDCAVFMSYFTT yielded an amyloid nucleation score of 3.34 ± 0.11. ARKYLRCGSACVKVEYF showed an amyloid nucleation score of 3.51 ± 0.047. ARNRSSIKWGRGSDYGFTEL showed an amyloid nucleation score of 0.451 ± 0.65. ARSDLNMRTFFVWASLFVLS gave an amyloid nucleation score of 4.43 ± 0.056. ARVALRLIYDMDRVLWPDSY gave an amyloid nucleation score of 5 ± 0.067. In the case of ARYLITTAQVPVLGPRSQHK, the amyloid nucleation score is reported as 0.073 ± 0.41. With ASAEQRNLCIEFASDQLYVI the amyloid nucleation score was -0.478 ± 0.38. In the case of ASAYSPASRRSTDMADALV, the amyloid nucleation score is reported as 0.496 ± 0.31. For ASDWLNRNSNS, the amyloid nucleation score was -0.211 ± 0.28. For ASGVFSLAEYNFFGISKKSF, the amyloid nucleation score was “inactive”. ASIPINHPHRVRLNTSYECI gave an amyloid nucleation score of -0.657 ± 0.56. ASMKGYV showed an amyloid nucleation score of 0.148 ± 0.5. ASTSLMVN gave an amyloid nucleation score of 0.052 ± 0.46. ATQRHVSTGKSGSN showed an amyloid nucleation score of 0.606 ± 0.8. Substance ATQVMMGVAEYACLYNCTHM has an amyloid nucleation score of 8.223 ± 0.078. ATRCFSNWDTSACYMWKC showed an amyloid nucleation score of 8.074 ± 0.061. For ATVRLHNGFG, the amyloid nucleation score was 0.127 ± 0.31. Work on AVALYVSDSQDHPGNRNVLV yielded an amyloid nucleation score of 2.45 ± 0.099. AVCVENLCPWV showed an amyloid nucleation score of 1.82 ± 0.11. For AVEAYNMSNYLLRYISGSV, the amyloid nucleation score was -0.109 ± 0.65. Substance AVFTIFALVRS has an amyloid nucleation score of 1.08 ± 0.51. AVFVPNSNALVLTVLT gave an amyloid nucleation score of 0.603 ± 0.51. With AVKCGNGSEF the amyloid nucleation score was -0.066 ± 0.45. Substance AVMAISMRS has an amyloid nucleation score of 0.514 ± 0.56. For AVMMCIASIDFRVWYLG, the amyloid nucleation score was 1.53 ± 0.15. Work on AVNCH yielded an amyloid nucleation score of 0.748 ± 0.19. Substance AVQAIITHQTLGKQVFFWFE has an amyloid nucleation score of 7.85 ± 0.076. AVSIGLYFVQASP showed an amyloid nucleation score of 9.658 ± 0.052. For AVSVAVLRHLEVRRKVWS, the amyloid nucleation score was 1.66 ± 0.15. For AWCFLYLLWLPGIQN, the amyloid nucleation score was -0.226 ± 1.1. For AWESIAFPCKVIYCYLRWTL, the amyloid nucleation score was “inactive”. AWFMCSFECVTRSVKHALR showed an amyloid nucleation score of 0.523 ± 0.64. For AWHSRTFVSLSLGRTSVEVL, the amyloid nucleation score was -0.242 ± 0.45. Work on AWLWKMFNGTCNRWYINRPL yielded an amyloid nucleation score of -0.81 ± 0.76. With AWSLDVTTM the amyloid nucleation score was 0.051 ± 0.27. In the case of AWSYVQFRTFYALTVPTSAL, the amyloid nucleation score is reported as -0.125 ± 0.38. Work on AYKCFGVLCFRRNRSGKEGL yielded an amyloid nucleation score of -0.318 ± 0.76. In the case of AYLLWVRYIYEHDSTIGWLI, the amyloid nucleation score is reported as “inactive”. In the case of AYSGIECGVVQWSFYRRKLI, the amyloid nucleation score is reported as “inactive”. With AYSKTNVFNSWWLVKCLFLF the amyloid nucleation score was “inactive”. AYVRNAIGTMFLLALSHRGD showed an amyloid nucleation score of -0.345 ± 0.48. Substance CAFRASFLLT has an amyloid nucleation score of 0.04 ± 0.34. For CAIKFPYQFTYLNINNQ, the amyloid nucleation score was 6.229 ± 0.044. With CAINPKVKRSFLVI the amyloid nucleation score was -1.73 ± 1.1. Substance CAISYSFPGIFRQWCVFPDG has an amyloid nucleation score of -0.593 ± 0.33. In the case of CAPVTLVFRYAGIYMQLFIW, the amyloid nucleation score is reported as “inactive”. Substance CASRC has an amyloid nucleation score of 4.11 ± 0.06. Substance CCAGWYSGEEGRMGSRL has an amyloid nucleation score of 0.511 ± 0.18. Substance CCFVVISYDRNSQLH has an amyloid nucleation score of 9.791 ± 0.043. In the case of CCPASYMQYEFLGRMSGGCW, the amyloid nucleation score is reported as 2.82 ± 0.15. With CCRNLRDRLNW the amyloid nucleation score was “inactive”. Work on CCSIVSTYRKYLVNRTRWIF yielded an amyloid nucleation score of -0.982 ± 0.42. Work on CCSVCFRRLLYLLSRR yielded an amyloid nucleation score of 6.9 ± 0.068. For CCVAGLFEWHWY, the amyloid nucleation score was 8.409 ± 0.081. CCVDDRWVDARPWGSRNSRA showed an amyloid nucleation score of 0.491 ± 0.57. Work on CDFDIHERMCPYCYIIQVGD yielded an amyloid nucleation score of -0.081 ± 0.65. CDHVVVIIIVGWGAEGE gave an amyloid nucleation score of 0.512 ± 0.25. For CDISRGLILYTHGLLFWTIR, the amyloid nucleation score was “inactive”. In the case of CDMFLSYLRT, the amyloid nucleation score is reported as 1.74 ± 0.23. With CDSWWYFSNKANSLWSKCSA the amyloid nucleation score was -0.723 ± 0.35. CDVRMRVAGRAR showed an amyloid nucleation score of 3.19 ± 0.11. Work on CDYWYYIGRRNVEMEHRVTC yielded an amyloid nucleation score of 0.148 ± 1. With CEFLMLFREFLDW the amyloid nucleation score was 4.59 ± 0.055. With CEFMCLQGSRDRIDFLHRSE the amyloid nucleation score was -1 ± 0.34. CELRIFTCHDSCAVLDRWME gave an amyloid nucleation score of 1.16 ± 0.18. With CEVSGYARWLGQHYWSAVRA the amyloid nucleation score was 1.69 ± 0.32. With CFFLYIRHFAMYCA the amyloid nucleation score was 1.65 ± 0.17. In the case of CFFPDSVTTELKKIKTL, the amyloid nucleation score is reported as -0.692 ± 0.41. CFGIILVQGYMHA gave an amyloid nucleation score of 3.6 ± 0.052.
